Measured values reported in patent US20240398896A1, “INFLAMMASOME INHIBITION” (National University of Singapore, priority 2021, published 2024).

Tests used:
NLRP3 inflammasome [1] = biological target: NLRP3 inflammasome (Homo sapiens, UniProt Q9ULZ3); experiment: Inflammasome activation in LPS-primed THP-1 macrophages stably expressing ASC2, stimulated with MSU crystals; format: cell-based; set-up: endogenous in cells; host or cells: THP-1 macrophages (PMA-differentiated, LPS-primed); conditions: LPS 3 h, MSU crystals 4 h
Description: Generation of THP-1 and IMACs stable cells. […] Single cell clones were generated for THP-1 cells stably expressing ASC2-LSSmOrange.
(§1) Inflammasome activation assays.

[2] = tested on: peritonitis induced by ASC specks; experiment: Peritonitis induced by ASC specks in bat ASC2/rtTA mice; format: in vivo, mouse; conditions: bat ASC2/rtTA vs WT mice, oral Dox 7 days, ASC-mPlum specks i.p., 4 h
bat NLRP3 inflammasome = experiment: ASC speck formation in HEK293T cells reconstituted with bat NLRP3-mCitrine and bat ASC-mPlum (ImageStream); format: cell-based, Pteropus alecto; conditions: bat NLRP3-mCitrine, bat ASC-mPlum, ASC2-LSSmOrange overexpressed, FIG. 3B
Description: as §1
(§2) ImageStream imaging flow cytometry. […] Nuclei were stained with DAPI.

IAV = format: cell-based, mouse
bat ASC = experiment: Co-immunoprecipitation of ASC2-His with bat ASC-Flag from HEK293T cells; format: binding; conditions: 0.25 μg bat or hupa4 ASC2 vs 3 μg human ASC2 transfected, FIG. 26B
Experimental: Co-immunoprecipitation. HEK293T cells were transfected in 6-well plate with plasmids encoding His-tagged empty vector (His alone), bat ASC2, human ASC2, and Hupa4 ASC2 along with Flag-tagged human or bat ASC. 3 μg human ASC2, in contrast to 0.25 μg control, bat or hupa4 ASC2, were transfected to normalize the expression. At 48 h post-transfection, cells were lysed in IP lysis buffer (Pierce) according to manufacturer's protocol and centrifuged at 500 g for 10 minutes at 4° C. The supernatants were subjected to immunoprecipitation by incubation for 16 hours at 4° C. with anti-Flag (Sigma) incubated magnetic beads, followed by washing three times with TBS containing 0.05% Tween 20 and once with purified water. Bound proteins were separated by 15% SDS-PAGE, followed by immunoblotting analysis with the indicated antibodies.

AIM2 inflammasome = AIM2 inflammasome (Homo sapiens, UniProt Q9ULZ3); experiment: ASC speck formation in HEK293T cells reconstituted with human AIM2-mCitrine and human ASC-mPlum (ImageStream); format: cell-based; set-up: expressed in transfected cells; host or cells: HEK293T; conditions: FIG. 3D
Description: as §1, §2

NLRP3 inflammasome [3] = biological target: T1, NLRP3 inflammasome (Mus musculus, UniProt Q9EPB4); experiment: Inflammasome activation in LPS-primed BMDMs of WT or bat ASC2/rtTA mice stimulated with nigericin; conditions: Dox-induced bat ASC2, LPS 3 h
T1 sequence (Q9EPB4 1-193): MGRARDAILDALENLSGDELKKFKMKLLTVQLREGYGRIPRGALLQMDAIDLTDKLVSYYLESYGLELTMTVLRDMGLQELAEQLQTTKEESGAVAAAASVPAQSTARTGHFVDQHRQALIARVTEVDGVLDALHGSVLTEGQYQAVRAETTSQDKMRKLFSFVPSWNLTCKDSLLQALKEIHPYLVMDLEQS

[4] = biological target: T2, PYD-PYD interaction of human ASC (Homo sapiens, UniProt Q9ULZ3); experiment: NanoBiT inhibition assay of PYD-PYD interaction in HEK293T cells; format: cell-based; conditions: LgBiT/SmBiT-tagged PYD pairs 10 or 1 ng each, bat ASC2-LSSmOrange 10 ng, FIG. 19, 20
T2 construct: Human ASC PYRIN domain (PYD) was PCR amplified; linker […]; expressed in transfected cells; host or cells: HEK293T
Description: Plasmids. Vectors were constructed by standard molecular cloning with pcDNA3.1 (+) as the backbone. Restriction enzyme sites used include NheI, AgeI (introduced), HindIII, BamHI, XhoI, and XbaI from 5′ to 3′ sequentially. […]. The N-terminal and C-terminal inserts of human ASC PYD or NanoBiT tags were flanked by AgeI/HindIII and BamHI/XhoI, respectively. The linker (GSSGGGGSGGGGSSG) flanked by HindIII/BamHI and C-terminal His10-tag flanked by XhoI/XbaI was oligo annealed. The gene fragments were introduced into the backbone by single, double, or triple insertions. The resulting vectors were sequenced using CMV-F and BGH-rev primers.
Cell Culture and Transfection. HEK293T cells were cultured in modified Eagle's medium (DMEM) with 10% fetal bovine serum in humidified 37° C. incubator with 5% CO2. Cells were seeded at a density of 3×10^5 cells/mL one day prior to transient transfection using Fugene 6 transfection reagent (Promega) according to the manufacturer's instructions. At 24 h post-transfection, cells are harvested for analyses.
NanoBiT and Inhibition Assay. White opaque plates were coated with 50 μL of 0.001% poly-L-lysine for at least 15 min at 37° C. and air-dried before seeding 3×10^5 cells/mL HEK239T cells. […] Luminescence is immediately quantified using BioTek Cytation 5 with a gain of 135 and an integration time of 1 s.

Sequence of NLRP3 inflammasome (Homo sapiens, UniProt Q9ULZ3) (Q9ULZ3 whole entry): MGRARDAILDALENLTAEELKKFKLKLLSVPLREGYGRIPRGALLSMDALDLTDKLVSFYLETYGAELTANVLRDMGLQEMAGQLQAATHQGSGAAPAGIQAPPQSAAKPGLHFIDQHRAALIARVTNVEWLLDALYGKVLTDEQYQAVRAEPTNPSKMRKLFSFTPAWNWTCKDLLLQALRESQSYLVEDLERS
Sequence of AIM2 inflammasome (Q9ULZ3 whole entry): as above
T2 sequence (Q9ULZ3 1-91 limits assumed): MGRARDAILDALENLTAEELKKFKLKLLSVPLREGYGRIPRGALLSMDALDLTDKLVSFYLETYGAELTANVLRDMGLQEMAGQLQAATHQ

B1: bat ASC2: ASC2 (PYRIN-only protein) of the bat Pteropus alecto, SEQ ID NO:11; expressed from vectors or as Dox-inducible transgene (protein)
chain: MGKKRDAILEALENLTADELKKFKLKLGAAPLRQGFRNIPRGALGPLDAVDLTDKLVAFYCEDYGAELTAVVLRDIGMQEEAERLQGVA
- Cell death (LDH release) (NLRP3 inflammasome [1]; FIG. 4D): inhibited
- IL-1β secretion (NLRP3 inflammasome [1]; FIG. 4E): inhibited
- Recruitment of neutrophils (peritoneal lavage) ([2]; FIG. 8E): suppressed
- IL-1β release (peritoneal lavage) ([2]; FIG. 8F): suppressed
- ASC speck formation (bat NLRP3 inflammasome activation) (bat NLRP3 inflammasome): inhibited bat NLRP3 inflammasome
- In vitro IL-1β response to IAV infection (IAV): significantly lower
- Viral titres in supernatants (IAV): no obvious difference
- Interaction with bat ASC (co-IP) (bat ASC): interact with bat ASC more strongly than human ASC2
- ASC speck formation (human AIM2 inflammasome activation) (AIM2 inflammasome; HEK293T, human AIM2-mCitrine, human ASC-mPlum, ASC2-LSSmOrange): suppressed the activation
- Potency in inhibiting human AIM2 inflammasome compared with human ASC2 (AIM2 inflammasome; expression normalized by gating equal signal intensity): significantly more potent
- ASC speck formation (NLRP3 inflammasome [3]; nigericin 30 min, FIG. 6B, 6C): reduction of ASC speck formation
- Pyroptotic cell death (LDH release) (NLRP3 inflammasome [3]; nigericin 1 h, FIG. 5B): reduction
- IL-1β secretion (NLRP3 inflammasome [3]; nigericin 1 h, FIG. 5C): reduction
- PYD-PYD protein-protein interaction (NanoBiT luminescence signal) [4]: inhibit PYD-PYD protein-protein interaction
